The source of these data is patent publication US20200087364A1 (IMMATICS BIOTECHNOLOGIES, published 2020).

Where only a bound is given, the exact number is not on record here.

In the assay the target is T1, HLA-A*01:01 (human).
T1 construct: MHC class I monomer first loaded with a UV-sensitive peptide (not identified) that is cleaved by UV irradiation and exchanged for the tested peptide; captured on streptavidin plates, detected with anti-β2m; also called peptide-receptive MHC molecules
Kind of assay: UV-ligand exchange, anti-b2m ELISA. An excerpt: Candidate peptides for T cell based therapies according to the present invention were further tested for their MHC binding capacity (affinity). The individual peptide-MHC complexes were produced by UV-ligand exchange, where a UV-sensitive peptide is cleaved upon UV-irradiation and exchanged with the peptide of interest as analyzed. Only peptide candidates that can effectively bind and stabilize the peptide-receptive MHC molecules prevent dissociation of the MHC complexes. To determine the yield of the exchange reaction, an ELISA was performed based on the detection of the light chain (β2m) of stabilized MHC complexes. The assay was performed as generally described in Rodenko et al. (Rodenko et al., 2006)
96 well MAXISorp plates (NUNC) were coated over night with 2 ug/ml streptavidin in PBS at room temperature, washed 4× and blocked for 1 h at 37° C. in 2% BSA containing blocking buffer. Refolded HLA-A*02:01/MLA-001 monomers served as standards, covering the range of 15-500 ng/ml. Peptide-MHC monomers of the UV-exchange reaction were diluted 100-fold in blocking buffer. Samples were incubated for 1 h at 37° C., washed four times, incubated with 2 ug/ml HRP conjugated anti-β2m for 1 h at 37° C., washed again and detected with TMB solution that is stopped with […]. Absorption was measured at 450 nm.
In general terms: ELISA stands for enzyme-linked immunosorbent assay.
For YTADNEMGYY, the peptide exchange yield was in the range of 50 to 75%. Turning to LAFYYGMY, the peptide exchange yield was 20 to 50%. The molecule NSMLDPLVY gave a peptide exchange yield above 75%. Molecule KTIQEVAGY gave a peptide exchange yield of 20 to 50%.

Regarding SLPEFGLTY, the peptide exchange yield is 20 to 50%. CYTADNEMGY: the peptide exchange yield is 50 to 75%. Consider AQISDTGRY, for which the peptide exchange yield lay in the range of 20 to 50%.

QTDINGGSLK showed a peptide exchange yield of 50 to 75%. The molecule LSAQHRMLA yielded a peptide exchange yield of 20 to 50%.

In turn, VDPIGHLY came in with a peptide exchange yield of 20 to 50%.

With LADTDLGMTF, the peptide exchange yield lay in the range of 20 to 50%. Take NSDESADSEPHKY: the peptide exchange yield was above 75%.

LMDEGAVLTL registered a peptide exchange yield of 20 to 50%. RSDPVSLRY yielded a peptide exchange yield above 75%.

MMTDLTSVY had a peptide exchange yield of 50 to 75%.

Regarding SLPEFGLTYY, the peptide exchange yield was 20 to 50%. As for HTDLESPSAVY, the peptide exchange yield was in the range of 50 to 75%. The molecule DTLEAATSLY yielded a peptide exchange yield of 20 to 50%.

In the case of KLTDYINANY, the peptide exchange yield was 20 to 50%. The molecule AVSSGLFFY gave a peptide exchange yield of 20 to 50%. Turning to LSQDELSKF, the peptide exchange yield lay within 20 to 50%. In turn, DVERIKDTY showed a peptide exchange yield of 20 to 50%. For VMDTLGLFY, the peptide exchange yield was above 75%. NDEIDKLTGY registered a peptide exchange yield above 75%. The molecule ASWAVLCYY displayed a peptide exchange yield of 50 to 75%. TQKSVQVLAY had a peptide exchange yield of 20 to 50%. For KTELETALYY the value was 50 to 75%; for RTDEGDNRVW, 20 to 50%; for LLISKAEDY, 20 to 50%.

The molecule TSEVEGLAFVSY returned a peptide exchange yield of 50 to 75%. With TQRTSFQFY, the peptide exchange yield lay within 20 to 50%. In turn, GLEYEAPKLY registered a peptide exchange yield of 20 to 50%. Molecule YLNEWGSRF had a peptide exchange yield of 20 to 50%.

The molecule RMQEGSEVY registered a peptide exchange yield of 20 to 50%.

In the case of EADPFLKYL, the peptide exchange yield lay in the range of 20 to 50%. In turn, RLAQYTIERY displayed a peptide exchange yield of 20 to 50%. Regarding TDVERIKDTY, the peptide exchange yield lay in the range of 50 to 75%.

For the molecule FTRAFDQLRM, the peptide exchange yield fell in the range of 50 to 75%. Turning to TQPELSSRY, the peptide exchange yield is 20 to 50%. SQNGQLIHY returned a peptide exchange yield of 50 to 75%. In turn, LVDGKWQEF yielded a peptide exchange yield of 20 to 50%. QSTTGVSHY registered a peptide exchange yield of 50 to 75%.

VSSTVHNLY yielded a peptide exchange yield above 75%. Regarding NVKEAPTEY, the peptide exchange yield fell in the range of 20 to 50%.

In the case of VSDSTTEITY, the peptide exchange yield is 50 to 75%. In turn, LLEGEDAHLTQY displayed a peptide exchange yield of 50 to 75%. For SVTDLIGGKW the value was 20 to 50%. The molecule LLEADPFLKY gave a peptide exchange yield above 75%. For QITPKHNGLY the value was 20 to 50%; for FRGVFVHRY, 20 to 50%.

In turn, SSTDFTFASW registered a peptide exchange yield of 10 to 20%.

The molecule LCAAVLAKY had a peptide exchange yield of 20 to 50%. FSEPFHLIV came in with a peptide exchange yield of 50 to 75%.

For the molecule FTAQLQLY, the peptide exchange yield was 50 to 75%. In the case of VQDPSLPVY it was 20 to 50%; in that of STDPNIVRK, 50 to 75%. The molecule DIPDYLLQY showed a peptide exchange yield of 50 to 75%. ESAPKEVSRY displayed a peptide exchange yield of 20 to 50%.

With GSPDAVVSY, the peptide exchange yield fell in the range of 10 to 20%.

In the case of LSSAVNPIIY, the peptide exchange yield fell in the range of 20 to 50%. LTEGHSGNY: the peptide exchange yield was above 75%. On to NAVDVVPSSF, for which the peptide exchange yield lay within 10 to 20%.
